In IntAct's records for PubMed 18930710:

B1: Ras-related protein Rap-2a (Homo sapiens), P10114 (parent)
chain: MREYKVVVLGSGGVGKSALTVQFVTGTFIEKYDPTIEDFYRKEIEVDSSPSVLEILDTAGTEQFASMRDLYIKNGQGFILVYSLVNQQSFQDIKPMRDQIIRVKRYEKVPVILVGNKVDLESEREVSSSEGRALAEEWGCPFMETSAKSKTMVDELFAEIVRQMNYAAQPDKDDPCCSACNIQ

Variants of: B1
Settings: with mink1_human MINK1, Q8N4C8
Chain of mink1_human MINK1, Q8N4C8 (Q8N4C8 whole entry, looked up): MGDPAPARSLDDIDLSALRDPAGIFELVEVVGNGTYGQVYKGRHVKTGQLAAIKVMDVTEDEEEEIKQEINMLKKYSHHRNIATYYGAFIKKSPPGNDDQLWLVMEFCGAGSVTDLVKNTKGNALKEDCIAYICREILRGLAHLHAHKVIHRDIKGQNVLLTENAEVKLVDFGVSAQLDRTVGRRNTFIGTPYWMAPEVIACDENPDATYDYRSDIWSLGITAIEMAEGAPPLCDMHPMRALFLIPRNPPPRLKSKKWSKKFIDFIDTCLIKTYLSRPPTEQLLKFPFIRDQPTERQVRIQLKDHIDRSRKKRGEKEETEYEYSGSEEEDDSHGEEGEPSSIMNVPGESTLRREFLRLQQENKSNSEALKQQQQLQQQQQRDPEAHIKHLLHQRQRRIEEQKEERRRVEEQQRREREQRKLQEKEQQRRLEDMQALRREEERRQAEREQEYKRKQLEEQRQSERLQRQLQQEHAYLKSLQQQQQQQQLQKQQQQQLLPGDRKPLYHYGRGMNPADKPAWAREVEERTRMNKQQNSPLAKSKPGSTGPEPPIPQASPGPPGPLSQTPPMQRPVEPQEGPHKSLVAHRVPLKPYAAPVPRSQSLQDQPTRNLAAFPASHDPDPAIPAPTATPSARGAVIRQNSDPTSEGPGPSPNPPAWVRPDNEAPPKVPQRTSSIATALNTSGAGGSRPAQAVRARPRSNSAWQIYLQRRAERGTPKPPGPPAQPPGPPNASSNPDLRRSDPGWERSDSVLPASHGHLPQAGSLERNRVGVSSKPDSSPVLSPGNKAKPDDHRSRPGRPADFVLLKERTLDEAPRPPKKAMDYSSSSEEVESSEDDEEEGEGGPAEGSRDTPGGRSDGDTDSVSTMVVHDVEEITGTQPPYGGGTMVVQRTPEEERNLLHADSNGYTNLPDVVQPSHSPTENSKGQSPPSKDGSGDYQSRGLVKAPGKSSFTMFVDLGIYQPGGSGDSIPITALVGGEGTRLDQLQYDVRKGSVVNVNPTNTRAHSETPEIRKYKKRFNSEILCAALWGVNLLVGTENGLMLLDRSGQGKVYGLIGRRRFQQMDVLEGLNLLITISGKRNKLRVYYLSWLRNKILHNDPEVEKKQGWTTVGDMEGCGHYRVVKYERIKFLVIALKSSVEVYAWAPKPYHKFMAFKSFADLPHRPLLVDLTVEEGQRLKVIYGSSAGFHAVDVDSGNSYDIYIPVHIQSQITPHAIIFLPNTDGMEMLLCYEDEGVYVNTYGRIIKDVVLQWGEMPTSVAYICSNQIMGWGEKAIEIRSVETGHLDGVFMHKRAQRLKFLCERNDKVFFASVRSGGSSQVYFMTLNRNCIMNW

| effect of a mutation on the interaction | Variant |
| --- | --- |
| disrupting interaction | MREYKVVVLGSGGVGKNALTVQFVTGTFIEKYDPTIEDFYRKEIEVDSSPSVLEILDTAGTEQFASMRDLYIKNGQGFILVYSLVNQQSFQDIKPMRDQIIRVKRYEKVPVILVGNKVDLESEREVSSSEGRALAEEWGCPFMETSAKSKTMVDELFAEIVRQMNYAAQPDKDDPCCSACNIQ [S17N] |
| disrupting interaction | MREYKVVVLGSGGVGKSALTVQFVTGTFIEKYDPTIEDSYRKEIEVDSSPSVLEILDTAGTEQFASMRDLYIKNGQGFILVYSLVNQQSFQDIKPMRDQIIRVKRYEKVPVILVGNKVDLESEREVSSSEGRALAEEWGCPFMETSAKSKTMVDELFAEIVRQMNYAAQPDKDDPCCSACNIQ [F39S] |

Variants of: B1
Settings: with mink1_mouse Mink1, Q9JM52
Chain of mink1_mouse Mink1, Q9JM52 (Q9JM52 whole entry): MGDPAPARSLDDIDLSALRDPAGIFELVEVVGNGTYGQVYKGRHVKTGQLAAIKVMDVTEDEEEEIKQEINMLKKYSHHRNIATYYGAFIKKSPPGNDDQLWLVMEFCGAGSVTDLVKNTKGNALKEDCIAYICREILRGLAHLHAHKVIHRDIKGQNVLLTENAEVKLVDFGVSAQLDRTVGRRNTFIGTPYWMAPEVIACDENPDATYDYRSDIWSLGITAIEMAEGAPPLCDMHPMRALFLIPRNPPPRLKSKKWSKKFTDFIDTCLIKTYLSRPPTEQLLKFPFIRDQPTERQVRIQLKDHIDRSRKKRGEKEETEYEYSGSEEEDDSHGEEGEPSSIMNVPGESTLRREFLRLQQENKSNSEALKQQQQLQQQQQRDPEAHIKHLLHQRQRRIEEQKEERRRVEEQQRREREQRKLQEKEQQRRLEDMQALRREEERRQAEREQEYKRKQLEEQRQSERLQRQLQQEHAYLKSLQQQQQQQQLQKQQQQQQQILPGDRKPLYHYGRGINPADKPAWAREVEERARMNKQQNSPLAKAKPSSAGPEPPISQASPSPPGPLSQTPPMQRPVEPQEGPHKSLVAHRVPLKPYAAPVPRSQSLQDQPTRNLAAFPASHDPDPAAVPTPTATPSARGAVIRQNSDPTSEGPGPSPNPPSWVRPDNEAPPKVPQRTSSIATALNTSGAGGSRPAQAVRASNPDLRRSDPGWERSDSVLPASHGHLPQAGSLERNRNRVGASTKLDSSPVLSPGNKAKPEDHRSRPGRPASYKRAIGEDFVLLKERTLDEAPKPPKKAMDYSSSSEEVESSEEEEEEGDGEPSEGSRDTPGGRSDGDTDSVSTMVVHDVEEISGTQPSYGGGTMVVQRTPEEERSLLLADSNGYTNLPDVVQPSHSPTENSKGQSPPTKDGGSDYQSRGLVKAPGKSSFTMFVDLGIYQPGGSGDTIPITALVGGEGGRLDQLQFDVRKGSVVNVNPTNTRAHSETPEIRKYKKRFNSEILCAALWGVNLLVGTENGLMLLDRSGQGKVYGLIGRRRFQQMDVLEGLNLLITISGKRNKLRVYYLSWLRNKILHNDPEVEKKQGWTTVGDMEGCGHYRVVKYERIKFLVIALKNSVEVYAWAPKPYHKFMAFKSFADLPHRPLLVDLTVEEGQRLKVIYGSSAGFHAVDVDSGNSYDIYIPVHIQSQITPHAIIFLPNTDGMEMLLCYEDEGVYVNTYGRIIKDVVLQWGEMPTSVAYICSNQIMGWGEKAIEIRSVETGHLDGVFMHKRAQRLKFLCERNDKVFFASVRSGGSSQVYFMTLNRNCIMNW

| effect of a mutation on the interaction | Variant |
| --- | --- |
| decreasing interaction | MREYKVVVLGSGGVGKSALTVQFVTGTFIEKYDPTIEDSYRKEIEVDSSPSVLEILDTAGTEQFASMRDLYIKNGQGFILVYSLVNQQSFQDIKPMRDQIIRVKRYEKVPVILVGNKVDLESEREVSSSEGRALAEEWGCPFMETSAKSKTMVDELFAEIVRQMNYAAQPDKDDPCCSACNIQ [F39S] |
